Assay results taken from paper PMC10638201, “Application of electrospun chitosan-based nanofibers as immobilization matrix for biomolecules” (Applied Microbiology and Biotechnology, 2023).

Substrate: COc1cc(CO)ccc1O
Test: purified protein
Format: biochemical, Rhodococcus jostii
Details: free EUGO, O2 as co-substrate (air), ambient conditions, 50 mM Glycine·NaOH buffer, pH 8.0, N = 1, called preliminary

B1: eugenol oxidase (EUGO); 6xHis-eugenol-oxidase-StrepTag-II (Rhodococcus jostii RHA1) (protein)
chain: MTRTLPPGVSDERFDAALQRFRDVVGDKWVLSTADELEAFRDPYPVGAAEANLPSAVVSPESTEQVQDIVRIANEYGIPLSPVSTGKNNGYGGAAPRLSGSVIVKTGERMNRILEVNEKYGYALLEPGVTYFDLYEYLQSHDSGLMLDCPDLGWGSVVGNTLDRGVGYTPYGDHFMWQTGLEVVLPQGEVMRTGMGALPGSDAWQLFPYGFGPFPDGMFTQSNLGIVTKMGIALMQRPPASQSFLITFDKEEDLEQIVDIMLPLRINMAPLQNVPVLRNIFMDAAAVSKRTEWFDGDGPMPAEAIERMKKDLDLGFWNFYGTLYGPPPLIEMYYGMIKEAFGKIPGARFFTHEERDDRGGHVLQDRHKINNGIPSLDELQLLDWVPNGGHIGFSPVSAPDGREAMKQFEMVRNRANEYNKDYAAQFIIGLREMHHVCLFIYDTAIPEAREEILQMTKVLVREAAEAGYGEYRTHNALMDDVMATFNWGDGALLKFHEKIKDALDPNGIIAPGKSGIWSQRFRGQNL
notes: N-terminal His6 tag and C-terminal Strep-tag II, tags kept; gene from vector pEUGOA cloned into pET-28a(+) (pET-28-eugo-STII); E. coli BL21 (DE3) gold; Ni Sepharose purified; dimer, theoretical 124 kDa
- Km: 80 ± 20 µM
- kcat: 5 ± 1 s⁻¹
